The source of these data is the supplement of paper PMC9112550, “Optimization of the antimicrobial peptide Bac7 by deep mutational scanning” (BMC Biology, 2022).

The test system of the data set is Escherichia coli TOP10. Description: shrunken log2 fold change of peptide-encoding DNA abundance (4.5 h post-induction vs induction); higher = less antimicrobial activity (less host growth inhibition). To be noted: time post-induction: 4.5 h; library: site-saturation at positions 5, 18, 19, 20.
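Also: peptides expressed intracellularly from a pBAD plasmid library in pooled LB shake-flask culture, induced with 0.3% L-arabinose, DNA abundance read by NGS, three biological replicates, DESeq2 with apeglm shrinkage.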

With RRIRHRPPRLPRPRPRPFEMPRP, the “shrunken log2 fold change” value is -0.505.

As for RRIRFRPPRLPRPRPRPFQNPRP, the “shrunken log2 fold change” value is -0.041.

Take RRIRLRPPRLPRPRPRPPPKPRP: the “shrunken log2 fold change” value was 1.8.

Take RRIRPRPPRLPRPRPRPAGGPRP: the “shrunken log2 fold change” value is 0.269.

Consider RRIRGRPPRLPRPRPRPSPWPRP, for which the “shrunken log2 fold change” value stood at 0.392.

As to RRIRNRPPRLPRPRPRPDYFPRP, the “shrunken log2 fold change” value is -0.209.

Turning to RRIRARPPRLPRPRPRPLVHPRP, the “shrunken log2 fold change” value is -0.139.

Consider RRIRHRPPRLPRPRPRPYATPRP, for which the “shrunken log2 fold change” value was -0.172.

As to RRIRRRPPRLPRPRPRPWTIPRP, the “shrunken log2 fold change” value is -0.189.

With RRIRHRPPRLPRPRPRPCIEPRP, the “shrunken log2 fold change” value is -0.00547.

For RRIRYRPPRLPRPRPRPECDPRP, the “shrunken log2 fold change” value is -0.235.

For the sequence RRIRSRPPRLPRPRPRPHTEPRP, the “shrunken log2 fold change” value is -0.599.

Consider RRIRQRPPRLPRPRPRPWCKPRP, for which the “shrunken log2 fold change” value is -0.0323.

Turning to RRIRWRPPRLPRPRPRPCIAPRP, the “shrunken log2 fold change” value turned out to be 0.00205.

In the case of RRIRERPPRLPRPRPRPEHMPRP, the “shrunken log2 fold change” value is -0.0272.

As to RRIRARPPRLPRPRPRPYGWPRP, the “shrunken log2 fold change” value was found to be 0.0617.

On to RRIRHRPPRLPRPRPRPSSYPRP, for which the “shrunken log2 fold change” value is -0.649.

Take RRIRYRPPRLPRPRPRPKVEPRP: the “shrunken log2 fold change” value was -0.157.

For the sequence RRIRLRPPRLPRPRPRPWMPPRP, the “shrunken log2 fold change” value is -0.0741.

As to RRIRHRPPRLPRPRPRPDFKPRP, the “shrunken log2 fold change” value is -0.127.

Consider RRIRFRPPRLPRPRPRPRFLPRP, for which the “shrunken log2 fold change” value was -0.421.

On to RRIRCRPPRLPRPRPRPCEHPRP, for which the “shrunken log2 fold change” value is -0.328.

For RRIRQRPPRLPRPRPRPIIIPRP, the “shrunken log2 fold change” value was -0.197.

Take RRIRERPPRLPRPRPRPPSMPRP: the “shrunken log2 fold change” value is -0.242.

Take RRIRTRPPRLPRPRPRPSCNPRP: the “shrunken log2 fold change” value was -0.768.

RRIRQRPPRLPRPRPRPHWSPRP: the “shrunken log2 fold change” value was -0.161.

As to RRIRDRPPRLPRPRPRPFMPPRP, the “shrunken log2 fold change” value was -0.124.

As to RRIRDRPPRLPRPRPRPPEPPRP, the “shrunken log2 fold change” value worked out at 0.84.

RRIRGRPPRLPRPRPRPCVQPRP: the “shrunken log2 fold change” value worked out at 0.523.

Regarding RRIRNRPPRLPRPRPRPDGCPRP, the “shrunken log2 fold change” value was 0.136.

For the sequence RRIRPRPPRLPRPRPRPGTCPRP, the “shrunken log2 fold change” value turned out to be 0.182.

As to RRIRARPPRLPRPRPRPKPPPRP, the “shrunken log2 fold change” value came out at 0.959.

Turning to RRIRTRPPRLPRPRPRPWFVPRP, the “shrunken log2 fold change” value was -0.243.

In the case of RRIRFRPPRLPRPRPRPADKPRP, the “shrunken log2 fold change” value worked out at 0.0852.

For the sequence RRIRYRPPRLPRPRPRPRDKPRP, the “shrunken log2 fold change” value was -0.667.

As for RRIRRRPPRLPRPRPRPIWSPRP, the “shrunken log2 fold change” value is -0.000832.

With RRIRMRPPRLPRPRPRPQINPRP, the “shrunken log2 fold change” value is -0.0723.

Turning to RRIRARPPRLPRPRPRPNIQPRP, the “shrunken log2 fold change” value is -0.122.

RRIRDRPPRLPRPRPRPNIYPRP: the “shrunken log2 fold change” value is -0.3.

Turning to RRIRLRPPRLPRPRPRPPNCPRP, the “shrunken log2 fold change” value is -0.0466.

With RRIRSRPPRLPRPRPRPLWRPRP, the “shrunken log2 fold change” value stood at 0.303.

As for RRIRERPPRLPRPRPRPYNEPRP, the “shrunken log2 fold change” value was -0.178.

For the sequence RRIRLRPPRLPRPRPRPYPHPRP, the “shrunken log2 fold change” value was -0.323.

For RRIRARPPRLPRPRPRPRHPPRP, the “shrunken log2 fold change” value was determined as 0.383.

Consider RRIRRRPPRLPRPRPRPYTPPRP, for which the “shrunken log2 fold change” value is -0.225.

On to RRIRPRPPRLPRPRPRPDILPRP, for which the “shrunken log2 fold change” value was -0.51.

With RRIRCRPPRLPRPRPRPIIGPRP, the “shrunken log2 fold change” value is -0.304.

RRIRNRPPRLPRPRPRPWHMPRP: the “shrunken log2 fold change” value is -0.0135.

With RRIRVRPPRLPRPRPRPGADPRP, the “shrunken log2 fold change” value was determined as 0.163.

As to RRIRIRPPRLPRPRPRPHRQPRP, the “shrunken log2 fold change” value is -0.152.
